# Experimental data: paper PMC10086585, “From netrin‐1‐targeted SPECT/CT to internal radiotherapy for management of advanced solid tumors” (EMBO Molecular Medicine, 2023)
# Target: T1, human recombinant netrin‐1, on AHC biosensors (human, UniProt O95631 25-604)
# T1 construct: netrin-1, human, recombinant; AHC sensors capture human IgG Fc, so an Fc-tagged netrin-1 is surmised; Capture through a human antibody cannot be excluded; It may otherwise be the same protein as m1; also called h‐netrin‐1
# Assay: BLI; netrin-1 on AHC biosensors; analytes at 3.12-100 nM; 30°C, 1,000 rpm; PBS, 0.02% Tween-20, 0.1% BSA; 5 min association, 5 min dissociation
# Conditions: both partners purified
row,Kd,Binder
1,15.5 nM,"recombinant human lumican (natural protein, UniProt P51884 19-338, looked up, lumican, human, recombinant; also called hLumican) QYYDYDFPLSIYGQSSPNCAPECNCPESYPSAMYCDELKLKSVPMVPPGIKYLYLRNNQIDHIDEKAFENVTDLQWLILDHNLLENSKIKGRVFSKLKQLKKLHINHNNLTESVGPLPKSLEDLQLTHNKITKLGSFEGLVNLTFIHLQHNRLKEDAVSAAFKGLKSLEYLDLSFNQIARLPSGLPVSLLTLYLDNNKISNIPDEYFKRFNALQYLRLSHNELADSGIPGNSFNVSSLVELDLSYNKLKNIPTVNENLENYYLEVNQLEKFDIKSFCKILGPLSYSKIKHLRLDGNRISETSLPPDMYECLRVANEVTLN"
2,15.5 nM,"fibronectin leucine‐rich transmembrane protein (FLRT1), recombinant human (natural protein, UniProt Q9NZU1 49-552, looked up, FLRT1 (fibronectin leucine-rich transmembrane protein 1), human, recombinant; also called hFLRT‐1; FLTR1) IDSTTCPSVCRCDNGFIYCNDRGLTSIPADIPDDATTLYLQNNQINNAGIPQDLKTKVNVQVIYLYENDLDEFPINLPRSLRELHLQDNNVRTIARDSLARIPLLEKLHLDDNSVSTVSIEEDAFADSKQLKLLFLSRNHLSSIPSGLPHTLEELRLDDNRISTIPLHAFKGLNSLRRLVLDGNLLANQRIADDTFSRLQNLTELSLVRNSLAAPPLNLPSAHLQKLYLQDNAISHIPYNTLAKMRELERLDLSNNNLTTLPRGLFDDLGNLAQLLLRNNPWFCGCNLMWLRDWVKARAAVVNVRGLMCQGPEKVRGMAIKDITSEMDECFETGPQGGVANAAAKTTASNHASATTPQGSLFTLKAKRPGLRLPDSNIDYPMATGDGAKTLAIHVKALTADSIRITWKATLPASSFRLSWLRLGHSPAVGSITETLVQGDKTEYLLTALEPKSTYIICMVTMETSNAYVADETPVCAKAETADSYGPTTTLNQEQNAGPMASLP"
3,0.96 nM,"recombinant human integrin α6β4 (complex, integrin alpha-6, human, recombinant; integrin beta-4, human, recombinant; also called hIntegrin) chain 1: FNLDTREDNVIRKYGDPGSLFGFSLAMHWQLQPEDKRLLLVGAPRAEALPLQRANRTGGLYSCDITARGPCTRIEFDNDADPTSESKEDQWMGVTVQSQGPGGKVVTCAHRYEKRQHVNTKQESRDIFGRCYVLSQNLRIEDDMDGGDWSFCDGRLRGHEKFGSCQQGVAATFTKDFHYIVFGAPGTYNWKGIVRVEQKNNTFFDMNIFEDGPYEVGGETEHDESLVPVPANSYLGLLFLTSVSYTDPDQFVYKTRPPREQPDTFPDVMMNSYLGFSLDSGKGIVSKDEITFVSGAPRANHSGAVVLLKRDMKSAHLLPEHIFDGEGLASSFGYDVAVVDLNKDGWQDIVIGAPQYFDRDGEVGGAVYVYMNQQGRWNNVKPIRLNGTKDSMFGIAVKNIGDINQDGYPDIAVGAPYDDLGKVFIYHGSANGINTKPTQVLKGISPYFGYSIAGNMDLDRNSYPDVAVGSLSDSVTIFRSRPVINIQKTITVTPNRIDLRQKTACGAPSGICLQVKSCFEYTANPAGYNPSISIVGTLEAEKERRKSGLSSRVQFRNQGSEPKYTQELTLKRQKQKVCMEETLWLQDNIRDKLRPIPITASVEIQEPSSRRRVNSLPEVLPILNSDEPKTAHIDVHFLKEGCGDDNVCNSNLKLEYKFCTREGNQDKFSYLPIQKGVPELVLKDQKDIALEITVTNSPSNPRNPTKDGDDAHEAKLIATFPDTLTYSAYRELRAFPEKQLSCVANQNGSQADCELGNPFKRNSNVTFYLVLSTTEVTFDTPDLDINLKLETTSNQDNLAPITAKAKVVIELLLSVSGVAKPSQVYFGGTVVGEQAMKSEDEVGSLIEYEFRVINLGKPLTNLGTATLNIQWPKEISNGKWLLYLVKVESKGLEKVTCEPQKEINSLNLTESHNSRKKREITEKQIDDNRKFSLFAERKYQTLNCSVNVNCVNIRCPLRGLDSKASLILRSRLWNSTFLEEYSKLNYLDILMRAFIDVTAAAENIRLPNAGTQVRVTVFPSKTVAQYS chain 2: NRCKKAPVKSCTECVRVDKDCAYCTDEMFRDRRCNTQAELLAAGCQRESIVVMESSFQITEETQIDTTLRRSQMSPQGLRVRLRPGEERHFELEVFEPLESPVDLYILMDFSNSMSDDLDNLKKMGQNLARVLSQLTSDYTIGFGKFVDKVSVPQTDMRPEKLKEPWPNSDPPFSFKNVISLTEDVDEFRNKLQGERISGNLDAPEGGFDAILQTAVCTRDIGWRPDSTHLLVFSTESAFHYEADGANVLAGIMSRNDERCHLDTTGTYTQYRTQDYPSVPTLVRLLAKHNIIPIFAVTNYSYSYYEKLHTYFPVSSLGVLQEDSSNIVELLEEAFNRIRSNLDIRALDSPRGLRTEVTSKMFQKTRTGSFHIRRGEVGIYQVQLRALEHVDGTHVCQLPEDQKGNIHLKPSFSDGLKMDAGIICDVCTCELQKEVRSARCSFNGDFVCGQCVCSEGWSGQTCNCSTGSLSDIQPCLREGEDKPCSGRGECQCGHCVCYGEGRYEGQFCEYDNFQCPRTSGFLCNDRGRCSMGQCVCEPGWTGPSCDCPLSNATCIDSNGGICNGRGHCECGRCHCHQQSLYTDTICEINYSAIHPGLCEDLRSCVQCQAWGTGEKKGRTCEECNFKVKMVDELKRAEEVVVRCSFRDEDDDCTYSYTMEGDGAPGPNSTVLVHKKKDCPPGS"
4,15.6 nM,"recombinant human glypican‐1 (natural protein, UniProt P35052 24-530, looked up, glypican-1, human, recombinant; also called hGlypican‐1) DPASKSRSCGEVRQIYGAKGFSLSDVPQAEISGEHLRICPQGYTCCTSEMEENLANRSHAELETALRDSSRVLQAMLATQLRSFDDHFQHLLNDSERTLQATFPGAFGELYTQNARAFRDLYSELRLYYRGANLHLEETLAEFWARLLERLFKQLHPQLLLPDDYLDCLGKQAEALRPFGEAPRELRLRATRAFVAARSFVQGLGVASDVVRKVAQVPLGPECSRAVMKLVYCAHCLGVPGARPCPDYCRNVLKGCLANQADLDAEWRNLLDSMVLITDKFWGTSGVESVIGSVHTWLAEAINALQDNRDTLTAKVIQGCGNPKVNPQGPGPEEKRRRGKLAPRERPPSGTLEKLVSEAKAQLRDVQDFWISLPGTLCSEKMALSTASDDRCWNGMARGRYLPEVMGDGLANQINNPEVEVDITKPDMTIRQQIMQLKIMTNRLRSAYNGNDVDFQDASDDGSGSGSGDGCLDDLCSRKVSRKSSSSRTPLTHALPGLSEQEGQKTS"
5,6.85 nM,"recombinant human vitronectin (natural protein, UniProt P04004 20-478, looked up, vitronectin, human, recombinant; also called hVitronectin) DQESCKGRCTEGFNVDKKCQCDELCSYYQSCCTDYTAECKPQVTRGDVFTMPEDEYTVYDDGEEKNNATVHEQVGGPSLTSDLQAQSKGNPEQTPVLKPEEEAPAPEVGASKPEGIDSRPETLHPGRPQPPAEEELCSGKPFDAFTDLKNGSLFAFRGQYCYELDEKAVRPGYPKLIRDVWGIEGPIDAAFTRINCQGKTYLFKGSQYWRFEDGVLDPDYPRNISDGFDGIPDNVDAALALPAHSYSGRERVYFFKGKQYWEYQFQHQPSQEECEGSSLSAVFEHFAMMQRDSWEDIFELLFWGRTSAGTRQPQFISRDWHGVPGQVDAAMAGRIYISGMAPRPSLAKKQRFRHRNRKGYRSQRGHSRGRNQNSRRPSRATWLSLFSSEESNLGANNYDDYRMDWLVPATCEPIQSVFFFSGDKYYRVNLRTRRVDTVDPPYPRSIAQYWLGCPAPGHL"
